# B1: FD-11A human monoclonal antibody (IgG1) (antibody, V domains shown)
# VH: EVQLVESGGGVVQPGRSLRLSCAASGFTFSSYGMHWVRQAPGKGLEWVAVIWYDGSNKYYADSVKGRFTISRDNSKNTLYLQMNSLRAEDTAVYYCAKGPDILTGYYNYYYYGMDVWGQGTMVTVSS
# VL: QSVLTQPPSVSGAPGQRVTISCTGSSSNIGAGYDVHWYQQLPGTAPKLLIYGNSNRPSGVPDRFSGSKSGTSASLAITGLQAEDEADYYCQSYDSSLSGFYVVFGGGTKLTVL
# B2: EY-6A human monoclonal antibody (IgG1) (antibody, V domains shown)
# VH: EVQLVESGGGVVQPGRSLRLSCAASAFTFSSYDMHWVRQAPGKGLEWVAVISYDGSNKYYADSVKGRFTISRDNSKNTLYLQMNSLRAEDTAVYYCAKDGGKLWVYYFDYWGQGTLVTVSS
# VL: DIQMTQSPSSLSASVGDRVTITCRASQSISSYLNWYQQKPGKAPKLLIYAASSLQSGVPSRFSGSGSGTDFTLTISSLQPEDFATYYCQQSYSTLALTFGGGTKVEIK
# B3: REGN10987 monoclonal antibody (antibody, V domains shown)
# VH: QVQLVESGGGVVQPGRSLRLSCAASGFTFSNYAMYWVRQAPGKGLEWVAVISYDGSNKYYADSVKGRFTISRDNSKNTLYLQMNSLRTEDTAVYYCASGSDYGDYLLVYWGQGTLVTVSS
# VL: QSALTQPASVSGSPGQSITISCTGTSSDVGGYNYVSWYQQHPGKAPKLMIYDVSKRPSGVSNRFSGSKSGNTASLTISGLQSEDEADYYCNSLTSISTWVFGGGTKLTVL
# notes: also called REGN10977 (as printed once)
# B4: FI-3A human monoclonal antibody (IgG1) (antibody, V domains shown)
# VH: EVQLLESGGGLIQPGGSLRLSCAASGFTVSSNYMSWVRQAPGKGLEWVSVIYSGGSTYYADSVKGRFTISRDNSKNTLYLQMNSLRAEDTAVYYCARDHVRPGMNIWGQGTMVTVSS
# VL: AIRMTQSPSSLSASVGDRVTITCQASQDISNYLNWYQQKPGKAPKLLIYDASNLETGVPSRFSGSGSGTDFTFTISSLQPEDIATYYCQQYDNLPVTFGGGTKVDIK
# B5: FD-5D human monoclonal antibody (IgG1) (antibody, V domains shown)
# VH: EVQLVESGGGLVQPGGSLRLSCAASGFTFSSYSMNWVRQAPGKGLEWVSYISSSSSTIYYADSVKGRFTISRDNAKNSLYLQMNSLRAEDTAVYYCASPGGITAAGTSVLFGYYGMDVWGQGTTVTVSS
# VL: not shown
# notes: source: ExpiCHO cells, purified (MabSelect SuRe, desalted)
# B6: REGN10933 monoclonal antibody (antibody, V domains shown)
# VH: QVQLVESGGGLVKPGGSLRLSCAASGFTFSDYYMSWIRQAPGKGLEWVSYITYSGSTIYYADSVKGRFTISRDNAKSSLYLQMNSLRAEDTAVYYCARDRGTTMVPFDYWGQGTLVTVSS
# VL: DIQMTQSPSSLSASVGDRVTITCQASQDITNYLNWYQQKPGKAPKLLIYAASNLETGVPSRFSGSGSGTDFTFTISGLQPEDIATYYCQQYDNLPLTFGGGTKVEIK
# notes: as for B5
# Target: RBD-VLP (SARS-CoV-2, UniProt P0DTC2)
# Assay: ELISA
# Conditions: both partners purified
row,Binder,binding result
1,B1,binds
2,B2,binds
3,B3,binds
4,B4,binds
5,B5,binds
6,B6,binds

# Target: T1, SARS-CoV-2 spike protein (Wuhan strain), full length, expressed on MDCK cells (SARS-CoV-2, UniProt P0DTC2)
# T1 construct: source: MDCK-SIAT1 cells stably transfected (lentiviral vector), on cells
# Assay: flow cytometry on cells
# Conditions: one partner purified
row,Binder,binding result
1,B1,binds
2,B2,binds
3,B4,binds

# Reference: article PMC8690919 (Theranostics, 2022)
